Each block holds one molecule with its values, some of them ahead of it. Where no end group is shown, it is not given here.
Experiments:
[1] = target: T1, COUP-TFII (Homo sapiens, UniProt P24468, C174S); assay: AlphaScreen ligand-dependent coactivator peptide recruitment to purified LBD; also NGFI-A luciferase reporter in COS-7 cells; format: binding
T1 construct: gene NR2F2; LBD (residues 173–414 with C174S mutation), 6X His-GST fusion protein
T1 sequence (P24468 173-414 C174S): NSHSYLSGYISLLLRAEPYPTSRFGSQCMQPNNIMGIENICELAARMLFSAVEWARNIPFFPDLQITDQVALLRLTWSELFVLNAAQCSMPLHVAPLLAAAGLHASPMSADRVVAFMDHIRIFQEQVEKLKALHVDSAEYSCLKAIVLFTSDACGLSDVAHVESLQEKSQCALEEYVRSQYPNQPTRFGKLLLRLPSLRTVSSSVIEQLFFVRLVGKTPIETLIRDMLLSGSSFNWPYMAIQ

[2] = target: full-length COUP-TFII (mouse expression plasmid) (mouse) (UniProt P43135)
[3] = target: the molecule itself; assay: crystal structure; ligand-free LBD, no cofactor peptide; hanging drops at 20 °C, well buffer 1.3 M or 1.5 M imidazole pH 5.6 and 1% Pluronic F68; space group C2, one LBD per asymmetric unit, symmetric dimer through crystal packing
[4] = target: T2, 6X His-GST-COUP-TFII LBD fusion protein (human, UniProt P24468 173-414, C174S); assay: AlphaScreen or HTRF; approximately 0.4 μM 6X His-GST receptor LBD and 0.1 μM biotinylated peptide, 20 μg/ml donor and acceptor beads; 50 mM MOPS, 50 mM NaF, 50 mM CHAPS, 0.1 mg/ml bovine serum albumin, pH 7.4; with 50 μM 9-cis-retinoic acid; conditions: both partners purified
T2 construct: The limits and C174S come from the protein preparation paragraph; also called receptor LBD; source: E. coli BL21 (DE3), purified as a 6X His-GST fusion protein; not shown: 6x Histidine, N-terminal, kept; GST, N-terminal, kept
T2 sequence (looked up): T1 sequence (P24468 173-414 C174S)

[5] = target: COUP-TFII L364A/L365A double mutant (mouse) (UniProt P43135)

Molecule: CC1=C(/C=C/C(C)=C\C=C\C(C)=C\C(=O)O)C(C)(C)CCC1 [9cRA, 9-cis-retinoic acid]
EC50 [1]: 17 µM

Molecule: CC1=C(/C=C/C(C)=C/C=C/C(C)=C/C(=O)O)C(C)(C)CCC1 [ATRA, all-trans-retinoic acid]
EC50 [1]: 26 µM

B1: human COUP-TFII ligand-binding domain (residues 173–414, C174S), tag cleaved (domain or fragment, UniProt P24468 173-414, looked up)
chain: T1 sequence (P24468 173-414 C174S)
notes: Ligand-free; One LBD per asymmetric unit; The model lacks 13 residues between α1 and α3, 17 residues between α5 and α6, and the C-terminal seven residues; also called COUP-TFII LBD; apo-COUP-TFII; source: E. coli BL21 (DE3), purified (glutathione-sepharose, thrombin cleavage, Ni2+ chelating sepharose); not shown: 6x Histidine, N-terminal, cleaved; GST, N-terminal, cleaved
binding result [3]: binds

Next, values leading:

NGFI-A promoter luciferase reporter in COS-7 cells, COUP-TFII cotransfected with SRC-3, relative to COUP-TFII alone [2]: > 2 fold
Molecule: SRC-3 (wild type) (from UniProt Q9Y6Q9 1-1424) (natural protein)

binding result [4]: binds
Molecule: AENQRGPLESKGHKKLLQLLTSS (also: biotinylated, position not given here) [biotinylated SRC3–1 peptide]

activation of the NGFI-A promoter luciferase reporter in COS-7 cells, relative to wild-type COUP-TFII [5]: 20%
B2: COUP-TFII L364A/L365A double mutant (natural protein)
chain: MAMVVSTWRDPQDEVPGSQGSQASQAPPVPGPPPGAPHTPQTPGQGGPASTPAQTAAGGQGGPGGPGSDKQQQQQHIECVVCGDKSSGKHYGQFTCEGCKSFFKRSVRRNLSYTCRANRNCPIDQHHRNQCQYCRLKKCLKVGMRREAVQRGRMPPTQPTHGQFALTNGDPLNCHSYLSGYISLLLRAEPYPTSRFGSQCMQPNNIMGIENICELAARMLFSAVEWARNIPFFPDLQITDQVALLRLTWSELFVLNAAQCSMPLHVAPLLAAAGLHASPMSADRVVAFMDHIRIFQEQVEKLKALHVDSAEYSCLKAIVLFTSDACGLSDVAHVESLQEKSQCALEEYVRSQYPNQPTRFGKLAARLPSLRTVSSSVIEQLFFVRLVGKTPIETLIRDMLLSGSSFNWPYMAIQ
